Measurements reported in paper PMC10891134, “Bacteria employ lysine acetylation of transcriptional regulators to adapt gene expression to cellular metabolism” (Nature Communications, 2024).

Assays:
[1] = target: RutR AcK7/11 K7AcK;K11AcK (Escherichia coli K12?) (UniProt P0ACU2); experiment: SPR; conditions: ITC: 100 mM potassium phosphate pH 6.4, 150 mM NaCl, 5 mM MgCl2, 2 mM b-ME, 20 or 25 C; SPR: 100 mM potassium phosphate pH 6.4, 300 mM NaCl, 0.05% Tween20 …
[2] = target: RutR AcK150 K150AcK (Escherichia coli K12?) (UniProt P0ACU2); experiment: ITC; conditions: ITC: 100 mM potassium phosphate pH 6.4, 150 mM NaCl, 5 mM MgCl2, 2 mM b-ME, 20 or 25 C; SPR: 100 mM potassium phosphate pH 6.4, 300 mM NaCl, 0.05% Tween20 …
[3] = target: RutR AcK95 K95AcK (Escherichia coli K12?) (UniProt P0ACU2); experiment: ITC; conditions: ITC: 100 mM potassium phosphate pH 6.4, 150 mM NaCl, 5 mM MgCl2, 2 mM b-ME, 20 or 25 C; SPR: 100 mM potassium phosphate pH 6.4, 300 mM NaCl, 0.05% Tween20 …
[4] = target: RutR AcK11 K11AcK (Escherichia coli K12?) (UniProt P0ACU2); experiment: ITC; conditions: ITC: 100 mM potassium phosphate pH 6.4, 150 mM NaCl, 5 mM MgCl2, 2 mM b-ME, 20 or 25 C; SPR: 100 mM potassium phosphate pH 6.4, 300 mM NaCl, 0.05% Tween20 …
[5] = target: RutR AcK7/11 K7AcK;K11AcK (Escherichia coli K12?) (UniProt P0ACU2); experiment: ITC; conditions: ITC: 100 mM potassium phosphate pH 6.4, 150 mM NaCl, 5 mM MgCl2, 2 mM b-ME, 20 or 25 C; SPR: 100 mM potassium phosphate pH 6.4, 300 mM NaCl, 0.05% Tween20 …
[6] = target: RutR AcK7 K7AcK (Escherichia coli K12?) (UniProt P0ACU2); experiment: ITC; conditions: ITC: 100 mM potassium phosphate pH 6.4, 150 mM NaCl, 5 mM MgCl2, 2 mM b-ME, 20 or 25 C; SPR: 100 mM potassium phosphate pH 6.4, 300 mM NaCl, 0.05% Tween20 …
[7] = target: RutR AcK21 K21AcK (Escherichia coli K12?) (UniProt P0ACU2); experiment: ITC; conditions: ITC: 100 mM potassium phosphate pH 6.4, 150 mM NaCl, 5 mM MgCl2, 2 mM b-ME, 20 or 25 C; SPR: 100 mM potassium phosphate pH 6.4, 300 mM NaCl, 0.05% Tween20 …
[8] = target: the molecule itself; experiment: SEC; analytical size-exclusion chromatography of the purified RutR proteins; elution as dimer; column and buffer not given

Molecule	stoichiometry N [8]	other results
GTTTTAATGTAAATTTTGACCATTTGGTCCACTTTTTTCTGCTCGT (double strand) [biotin-boxcarA]	–	binding signal (fold reduced affinity vs WT) [1]: 8
GTTTTATGTGCAACTGTTTTGACCGTTTAGTCCACTTTTTACCAGATATTTTAG (double strand) [boxrutA]	–	Kd [2]: 72 nM; Kd [3]: 32 nM; Kd [4]: 95 nM; Kd [5]: 251 nM; Kd [6]: 94 nM; Kd [7]: 58 nM
non-acetylated RutR (pyrimidine utilization repressor) wild type (natural protein, E. coli, UniProt P0ACU2 1-212, looked up, RutR, TetR-family transcriptional regulator of Escherichia coli; called full-length RutR WT; Expressed from a modified pRSFDuet-1 that carries a G to P mutation after the start Met of the tag region; No tag cleavage is described; also called RutR WT; source: E. coli BL21 (DE3), purified (Ni-NTA, SEC)) MTQGAVKTTGKRSRAVSAKKKAILSAALDTFSQFGFHGTRLEQIAELAGVSKTNLLYYFPSKEALYIAVLRQILDIWLAPLKAFREDFAPLAAIKEYIRLKLEVSRDYPQASRLFCMEMLAGAPLLMDELTGDLKALIDEKSALIAGWVKSGKLAPIDPQHLIFMIWASTQHYADFAPQVEAVTGATLRDEVFFNQTVENVQRIIIEGIRPR	2	–
RutR AcK21 (site-specifically K21-acetylated RutR) (natural protein, E. coli, acetyl-lysine at 21, RutR of Escherichia coli; rutR gene as in m1 with an amber stop codon at K21 for acetyl-L-lysine; Same rutR construct as m1 apart from the amber codon; constructs are in Supplementary Data 4; source: E. coli BL21 (DE3), genetic code expansion (acetyl-L-lysine at an amber codon), purified) MTQGAVKTTGKRSRAVSAKKKAILSAALDTFSQFGFHGTRLEQIAELAGVSKTNLLYYFPSKEALYIAVLRQILDIWLAPLKAFREDFAPLAAIKEYIRLKLEVSRDYPQASRLFCMEMLAGAPLLMDELTGDLKALIDEKSALIAGWVKSGKLAPIDPQHLIFMIWASTQHYADFAPQVEAVTGATLRDEVFFNQTVENVQRIIIEGIRPR	2	–
RutR AcK62 (site-specifically K62-acetylated RutR) (natural protein, E. coli, acetyl-lysine at 62, RutR of Escherichia coli; rutR gene as in m1 with an amber stop codon at K62 for acetyl-L-lysine; Same rutR construct as m1 apart from the amber codon; constructs are in Supplementary Data 4; source: E. coli BL21 (DE3), genetic code expansion (acetyl-L-lysine at an amber codon), purified) MTQGAVKTTGKRSRAVSAKKKAILSAALDTFSQFGFHGTRLEQIAELAGVSKTNLLYYFPSKEALYIAVLRQILDIWLAPLKAFREDFAPLAAIKEYIRLKLEVSRDYPQASRLFCMEMLAGAPLLMDELTGDLKALIDEKSALIAGWVKSGKLAPIDPQHLIFMIWASTQHYADFAPQVEAVTGATLRDEVFFNQTVENVQRIIIEGIRPR	2	–
RutR AcK150 (site-specifically K150-acetylated RutR) (natural protein, E. coli, acetyl-lysine at 150, RutR of Escherichia coli; rutR gene as in m1 with an amber stop codon at K150 for acetyl-L-lysine; Same rutR construct as m1 apart from the amber codon; constructs are in Supplementary Data 4; source: E. coli BL21 (DE3), genetic code expansion (acetyl-L-lysine at an amber codon), purified) MTQGAVKTTGKRSRAVSAKKKAILSAALDTFSQFGFHGTRLEQIAELAGVSKTNLLYYFPSKEALYIAVLRQILDIWLAPLKAFREDFAPLAAIKEYIRLKLEVSRDYPQASRLFCMEMLAGAPLLMDELTGDLKALIDEKSALIAGWVKSGKLAPIDPQHLIFMIWASTQHYADFAPQVEAVTGATLRDEVFFNQTVENVQRIIIEGIRPR	2	–
RutR AcK11 (site-specifically K11-acetylated RutR) (natural protein, E. coli, acetyl-lysine at 11, RutR of Escherichia coli; rutR gene as in m1 with an amber stop codon at K11 for acetyl-L-lysine; Same rutR construct as m1 apart from the amber codon; constructs are in Supplementary Data 4; source: E. coli BL21 (DE3), genetic code expansion (acetyl-L-lysine at an amber codon), purified) MTQGAVKTTGKRSRAVSAKKKAILSAALDTFSQFGFHGTRLEQIAELAGVSKTNLLYYFPSKEALYIAVLRQILDIWLAPLKAFREDFAPLAAIKEYIRLKLEVSRDYPQASRLFCMEMLAGAPLLMDELTGDLKALIDEKSALIAGWVKSGKLAPIDPQHLIFMIWASTQHYADFAPQVEAVTGATLRDEVFFNQTVENVQRIIIEGIRPR	2	–
RutR AcK7 (site-specifically K7-acetylated RutR) (natural protein, E. coli, acetyl-lysine at 7, RutR of Escherichia coli; rutR gene as in m1 with an amber stop codon at K7 for acetyl-L-lysine; Same rutR construct as m1 apart from the amber codon; constructs are in Supplementary Data 4; source: E. coli BL21 (DE3), genetic code expansion (acetyl-L-lysine at an amber codon), purified) MTQGAVKTTGKRSRAVSAKKKAILSAALDTFSQFGFHGTRLEQIAELAGVSKTNLLYYFPSKEALYIAVLRQILDIWLAPLKAFREDFAPLAAIKEYIRLKLEVSRDYPQASRLFCMEMLAGAPLLMDELTGDLKALIDEKSALIAGWVKSGKLAPIDPQHLIFMIWASTQHYADFAPQVEAVTGATLRDEVFFNQTVENVQRIIIEGIRPR	2	–
RutR AcK52 (site-specifically K52-acetylated RutR) (natural protein, E. coli, acetyl-lysine at 52, RutR of Escherichia coli; rutR gene as in m1 with an amber stop codon at K52 for acetyl-L-lysine; no electron density for the N-terminal 12 (chain A) or 11 (chain B) residues in the structure; Same rutR construct as m1 apart from the amber codon; constructs are in Supplementary Data 4; also called RutR AcK52•uracil; source: E. coli BL21 (DE3), genetic code expansion (acetyl-L-lysine at an amber …)) MTQGAVKTTGKRSRAVSAKKKAILSAALDTFSQFGFHGTRLEQIAELAGVSKTNLLYYFPSKEALYIAVLRQILDIWLAPLKAFREDFAPLAAIKEYIRLKLEVSRDYPQASRLFCMEMLAGAPLLMDELTGDLKALIDEKSALIAGWVKSGKLAPIDPQHLIFMIWASTQHYADFAPQVEAVTGATLRDEVFFNQTVENVQRIIIEGIRPR	2	–
double-acetylated RutR AcK7/11 (natural protein, E. coli, acetyl-lysine at 7 and at 11, RutR of Escherichia coli; rutR gene as in m1 with amber stop codons at K7 and K11 for acetyl-L-lysine; Same rutR construct as m1 apart from the amber codons; constructs are in Supplementary Data 4; also called K7- and K11-double-acetylated RutR; source: E. coli BL21 (DE3), genetic code expansion with an additional plasmid for the optimized MbtRNAopt, purified) MTQGAVKTTGKRSRAVSAKKKAILSAALDTFSQFGFHGTRLEQIAELAGVSKTNLLYYFPSKEALYIAVLRQILDIWLAPLKAFREDFAPLAAIKEYIRLKLEVSRDYPQASRLFCMEMLAGAPLLMDELTGDLKALIDEKSALIAGWVKSGKLAPIDPQHLIFMIWASTQHYADFAPQVEAVTGATLRDEVFFNQTVENVQRIIIEGIRPR	2	–
RutR AcK95 (site-specifically K95-acetylated RutR) (natural protein, E. coli, acetyl-lysine at 95, RutR of Escherichia coli; rutR gene as in m1 with an amber stop codon at K95 for acetyl-L-lysine; Same rutR construct as m1 apart from the amber codon; constructs are in Supplementary Data 4; source: E. coli BL21 (DE3), genetic code expansion (acetyl-L-lysine at an amber codon), purified) MTQGAVKTTGKRSRAVSAKKKAILSAALDTFSQFGFHGTRLEQIAELAGVSKTNLLYYFPSKEALYIAVLRQILDIWLAPLKAFREDFAPLAAIKEYIRLKLEVSRDYPQASRLFCMEMLAGAPLLMDELTGDLKALIDEKSALIAGWVKSGKLAPIDPQHLIFMIWASTQHYADFAPQVEAVTGATLRDEVFFNQTVENVQRIIIEGIRPR	2	–
